In patent publication US20190112340A1:

What was measured:
[1] = target: bRSV F 391-2 DS-Cav1 (bovine RSV, strain 391-2) (UniProt P22167); assay: Fab binding to purified bRSV F trimer (Octet BLI as in Example 1)
[2] = target: bRSV F 391-2 post-F (bovine RSV, strain 391-2) (UniProt P22167); assay: as above
[3] = target: bRSV F 391-2 post-F (bovine RSV, strain 391-2) (UniProt P22167); assay: Motavizumab binding to stressed post-F protein as a fraction of the untreated protein (physical stability)
[4] = target: RSV F sc9-42 DS-Cav1 (human RSV subtype A (strain A2)) (UniProt P03420); assay: BLI (Octet), F on Ni-NTA tips, Fab in solution
[5] = target: RSV F sc9-9 DS-Cav1 (human RSV subtype A (strain A2)) (UniProt P03420); assay: BLI (Octet), F on Ni-NTA tips, Fab in solution
sc9 DS-Cav1-105Q = assay: BLI (Octet), F on Ni-NTA tips, Fab in solution
[6] = target: sc9-10 DS-Cav1 A149C, Y458C S46G-S215P-K465Q (A2); assay: BLI (Octet), F on Ni-NTA tips, Fab in solution
[7] = target: sc9-10 DS-Cav1 N183GC, N428C S46G-N67I-E92D-S215P-K465Q (A2); assay: BLI (Octet), F on Ni-NTA tips, Fab in solution
[8] = target: sc9-10 A DS-Cav1 A149C, Y458C; assay: BLI (Octet), F on Ni-NTA tips, Fab in solution
[9] = target: RSV F sc9-41 DS-Cav1 (human RSV subtype A (strain A2)) (UniProt P03420); assay: BLI (Octet), F on Ni-NTA tips, Fab in solution
[10] = target: RSV F DS-Cav1 (human RSV subtype A (strain A2)) (UniProt P03420); assay: BLI (Octet), F on Ni-NTA tips, Fab in solution
[11] = target: sc9-10 DS-Cav1 A149C, Y458C S46G-E92D-S215P-K465Q (A2); assay: BLI (Octet), F on Ni-NTA tips, Fab in solution
[12] = target: sc9-10 DS-Cav1 Q98C, Q361C L95M-I221M-R429K (B18537); assay: BLI (Octet), F on Ni-NTA tips, Fab in solution
sc4 DS-Cav1 = assay: BLI (Octet), F on Ni-NTA tips, Fab in solution
sc10 DS-Cav1 [13] = assay: BLI (Octet), F on Ni-NTA tips, Fab in solution
[14] = target: sc9-10 DS-Cav1 A149C, Y458C S46G-N67I-E92D-S215P-K465Q (A2); assay: BLI (Octet), F on Ni-NTA tips, Fab in solution
sc11 DS-Cav1 = assay: BLI (Octet), F on Ni-NTA tips, Fab in solution
sc8 DS-Cav1 = assay: BLI (Octet), F on Ni-NTA tips, Fab in solution
sc9-19 DS-Cav1 = assay: BLI (Octet), F on Ni-NTA tips, Fab in solution
[15] = target: RSV F sc9 DS-Cav1 (human RSV subtype A (strain A2)); assay: BLI (Octet), F on Ni-NTA tips, Fab in solution
[16] = target: sc9-10 DS-Cav1 N183GC,N428C; assay: BLI (Octet), F on Ni-NTA tips, Fab in solution
[17] = target: RSV F sc9-10 DS-Cav1 (human RSV subtype A (strain A2)); assay: BLI (Octet), F on Ni-NTA tips, Fab in solution
[18] = target: sc9-10 DS-Cav1 Q98C, Q361C S46G-E92D-L95M-S215P-I217P-I221M-R429K-K465Q (Long (VR26)); assay: BLI (Octet), F on Ni-NTA tips, Fab in solution
sc9-24 DS-Cav1 = assay: BLI (Octet), F on Ni-NTA tips, Fab in solution
[19] = target: RSV F sc9 DS-Cav1 (human RSV subtype A (strain A2)); assay: D25 binding to heat-treated protein relative to the untreated protein (physical stability, FIG. 1E)
[20] = target: sc9-10 DS-Cav1 A149C, Y458C S46G-S215P-K465Q (A2); assay: BLI (Octet), D25 Fab binding after/before stress
[21] = target: sc9-10 DS-Cav1 N183GC, N428C S46G-N67I-E92D-S215P-K465Q (A2); assay: BLI (Octet), D25 Fab binding after/before stress
[22] = target: sc9-10 A DS-Cav1 A149C, Y458C; assay: BLI (Octet), D25 Fab binding after/before stress
[23] = target: RSV F DS-Cav1 (human RSV subtype A (strain A2)) (UniProt P03420); assay: BLI (Octet), D25 Fab binding after/before stress
[24] = target: sc9-10 DS-Cav1 A149C, Y458C S46G-E92D-S215P-K465Q (A2); assay: BLI (Octet), D25 Fab binding after/before stress
sc10 DS-Cav1 [25] = assay: BLI (Octet), D25 Fab binding after/before stress
[26] = target: sc9-10 DS-Cav1 A149C, Y458C S46G-N67I-E92D-S215P-K465Q (A2); assay: BLI (Octet), D25 Fab binding after/before stress
[27] = target: RSV F sc9 DS-Cav1 (human RSV subtype A (strain A2)); assay: BLI (Octet), D25 Fab binding after/before stress
[28] = target: sc9-10 DS-Cav1 N183GC,N428C; assay: BLI (Octet), D25 Fab binding after/before stress

Motavizumab Fab
Kd [1]: 0.8 nM
Kd [2]: 0.6 nM
fractional antibody reactivity after 10 cycles of freeze-thaw [3]: 1
fractional antibody reactivity after 50 °C [3]: 1
fractional antibody reactivity after 70 °C [3]: 1
fractional antibody reactivity after osmolarity 10 mM [3]: 0.9
fractional antibody reactivity after osmolarity 3000 mM [3]: 0.6
fractional antibody reactivity after pH 3.5 [3]: 0.8
fractional antibody reactivity after pH 10.0 [3]: 1.1
Kd [4]: 5.9 nM
Kd [5]: 1 nM
Kd (sc9 DS-Cav1-105Q): 16.3 nM
Kd [6]: 0.4 nM
Kd [7]: 0.6 nM
Kd [8]: 0.4 nM
Kd [9]: 0.04 nM
Kd [10]: 0.04 nM
Kd [11]: 0.6 nM
Kd [12]: 0.2 nM
Kd (sc4 DS-Cav1): 7.6 nM
Kd (sc10 DS-Cav1 [13]): 22.4 nM
Kd [14]: 0.1 nM
Kd (sc11 DS-Cav1): 29.3 nM
Kd (sc8 DS-Cav1): < 0.01 nM
Kd (sc9-19 DS-Cav1): 16.7 nM
Kd [15]: 13.7 nM
Kd [16]: 0.3 nM
Kd [17]: 9.7 nM
Kd [18]: 11.1 nM
Kd (sc9-24 DS-Cav1): 15.1 nM

D25 Fab
percent still active (site Ø retained) after 1 h at 70 °C [19]: 39%
Kd [6]: 0.1 nM
Kd [7]: 0.2 nM
Kd [8]: 0.2 nM
Kd [10]: 0.15 nM
Kd [11]: 0.2 nM
Kd (sc10 DS-Cav1 [13]): 0.3 nM
Kd [14]: 0.6 nM
Kd [15]: 0.8 nM
Kd [16]: 0.2 nM
fractional D25 reactivity, 50 °C [20]: 1
fractional D25 reactivity, 70 °C [20]: 0.9
fractional D25 reactivity, freeze-thaw [20]: 0.1
fractional D25 reactivity, osmolality 10 mM [20]: 0.7
fractional D25 reactivity, osmolality 3000 mM [20]: 0.8
fractional D25 reactivity, pH 10.0 [20]: 0.4
fractional D25 reactivity, 50 °C [21]: 1
fractional D25 reactivity, 70 °C [21]: 0.9
fractional D25 reactivity, freeze-thaw [21]: 0.2
fractional D25 reactivity, osmolality 10 mM [21]: 0.8
fractional D25 reactivity, osmolality 3000 mM [21]: 0.7
fractional D25 reactivity, pH 10.0 [21]: 0.5
fractional D25 reactivity, 10 cycles freeze/thaw with 5% glycerol [22]: 0.6
fractional D25 reactivity, 10 cycles freeze/thaw with 10% glycerol [22]: 0.9
fractional D25 reactivity, 50 °C [22]: 1
fractional D25 reactivity, 70 °C [22]: 0.8
fractional D25 reactivity, freeze-thaw [22]: 0.3
fractional D25 reactivity, osmolality 10 mM [22]: 0.7
fractional D25 reactivity, osmolality 3000 mM [22]: 0.6
fractional D25 reactivity, pH 3.5 [22]: 2.3
fractional D25 reactivity, pH 10.0 [22]: 0.7
fractional D25 reactivity, 50 °C [23]: 0.9
fractional D25 reactivity, 70 °C [23]: 0
fractional D25 reactivity, freeze-thaw [23]: 0.1
fractional D25 reactivity, osmolality 10 mM [23]: 0.9
fractional D25 reactivity, osmolality 3000 mM [23]: 1
fractional D25 reactivity, pH 3.5 [23]: 0.8
fractional D25 reactivity, pH 10.0 [23]: 0.5
fractional D25 reactivity, 50 °C [24]: 0.9
fractional D25 reactivity, 70 °C [24]: 0.8
fractional D25 reactivity, freeze-thaw [24]: 0.2
fractional D25 reactivity, osmolality 10 mM [24]: 0.5
fractional D25 reactivity, osmolality 3000 mM [24]: 0.6
fractional D25 reactivity, pH 3.5 [24]: 3.8
fractional D25 reactivity, pH 10.0 [24]: 0.6
fractional D25 reactivity, 50 °C (sc10 DS-Cav1 [25]): 0.3
fractional D25 reactivity, 70 °C (sc10 DS-Cav1 [25]): 0.3
fractional D25 reactivity, freeze-thaw (sc10 DS-Cav1 [25]): 0.1
fractional D25 reactivity, osmolality 10 mM (sc10 DS-Cav1 [25]): 0.1
fractional D25 reactivity, osmolality 3000 mM (sc10 DS-Cav1 [25]): 0.1
fractional D25 reactivity, pH 3.5 (sc10 DS-Cav1 [25]): 0.2
fractional D25 reactivity, pH 10.0 (sc10 DS-Cav1 [25]): 0.2
fractional D25 reactivity, 50 °C [26]: 1
fractional D25 reactivity, 70 °C [26]: 0.9
fractional D25 reactivity, freeze-thaw [26]: 0.1
fractional D25 reactivity, osmolality 10 mM [26]: 0.8
fractional D25 reactivity, osmolality 3000 mM [26]: 0.7
fractional D25 reactivity, pH 10.0 [26]: 0.7
fractional D25 reactivity, 50 °C [27]: 0.4
fractional D25 reactivity, 70 °C [27]: 0.4
fractional D25 reactivity, freeze-thaw [27]: 0.2
fractional D25 reactivity, osmolality 10 mM [27]: 0.1
fractional D25 reactivity, osmolality 3000 mM [27]: 0.1
fractional D25 reactivity, pH 3.5 [27]: 0.2
fractional D25 reactivity, pH 10.0 [27]: 0.1
fractional D25 reactivity, 10 cycles freeze/thaw with 5% glycerol [28]: 0.6
fractional D25 reactivity, 10 cycles freeze/thaw with 10% glycerol [28]: 0.7
fractional D25 reactivity, 50 °C [28]: 1
fractional D25 reactivity, 70 °C [28]: 0.5
fractional D25 reactivity, freeze-thaw [28]: 0.3
fractional D25 reactivity, osmolality 10 mM [28]: 0.9
fractional D25 reactivity, osmolality 3000 mM [28]: 0.4
fractional D25 reactivity, pH 3.5 [28]: 2.6
fractional D25 reactivity, pH 10.0 [28]: 0.7
